Patent publication US20250304973, “HIGH-AFFINITY THROMBIN APTAMERS AND METHODS OF USE” (Ayass Bioscience LLC, published 2025)

Key:
thrombin = thrombin (Rattus norvegicus, UniProt P18292;P18292 P18292:311-359,P18292:360-617); assay: BLI; biotinylated aptamer on streptavidin sensor, 1:1 fit; printed as "-0.6 nM"; settings: label: 5' biotin (ELISA, BLI); predicted hairpin, possible G4
Excerpt: The biosensors were then exposed to varying concentrations of rat thrombin protein, allowing real-time monitoring of thrombin binding to the aptamer. Kinetic parameters were derived by fitting the BLI binding curves to a 1:1 binding model.

alpha-thrombin (native) = alpha-thrombin (native) (Homo sapiens, UniProt P00734;P00734 P00734:315-363,P00734:364-622); assay: ELONA; 20 mM Tris pH 7.5, 150 mM NaCl, 0.1% BSA, 0.1% Tween 20, salmon sperm DNA, RT; competed by 100-fold unlabeled aptamer

Q: Which results are given for GCGGTGTTGCTGGGGTTGGGAGGTTGGAGGAAGCAATCGC (ssDNA) [AYA1809002]?
A: Kd (thrombin): ~0.6 nM; Kd (alpha-thrombin (native)): 10 nM
